Assay results taken from patent CN108635579A (UNIV JINAN, dated 2018).

What was measured:
重组人碱性成纤维细胞生长因子(bFGF) [1] = target: T1, 重组人碱性成纤维细胞生长因子(bFGF) (human, UniProt P09038 143-288, limits assumed); test: cell-based or functional assay
T1 construct: Bought protein; also called 重组人bFGF; bFGF抗原

重组人碱性成纤维细胞生长因子(bFGF) [2] = target: T1, 重组人碱性成纤维细胞生长因子(bFGF); test: SPR, bFGF immobilised on the chip, nanobody 3.125-200 nM in flow

T1 sequence (P09038 143-288 limits assumed): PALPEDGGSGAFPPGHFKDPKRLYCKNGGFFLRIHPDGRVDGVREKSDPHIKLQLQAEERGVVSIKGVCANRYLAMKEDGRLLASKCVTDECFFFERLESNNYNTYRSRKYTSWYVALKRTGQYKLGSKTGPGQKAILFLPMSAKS

Kd (重组人碱性成纤维细胞生长因子(bFGF) [2]) | Molecule | also measured
– | 阳性对照FGFR (receptor) | 最高增值抑制率, A375细胞 (CCK-8) (重组人碱性成纤维细胞生长因子(bFGF) [1]): 25.3%; 最高增值抑制率, B16-F10细胞 (CCK-8) (重组人碱性成纤维细胞生长因子(bFGF) [1]): 22.1%; 最高增值抑制率, B16细胞 (CCK-8) (重组人碱性成纤维细胞生长因子(bFGF) [1]): 27.1%
12.4 nM | 抗bFGF纳米抗体 Nb5 (VHH, Alpaca nanobody; Nickel-purified, anti-Flag detected; also called Nb bFGF) VHH: LQESGGGLVQAGGSLRLSCAASGRTFSSGAMGWFRQAPGKEPEFVATITWDGGTTYYADSVKGRYTISRDNAKNTVYLQMNDLKPEDTAVYSCAARSYSEAYYLIGSSDYNYWGQGTQVTVSS | –
10.3 nM | 抗bFGF纳米抗体 Nb6 (VHH, Alpaca nanobody; Nickel-purified, anti-Flag detected; also called Nb bFGF) VHH: LQESGGDLVQPGGSLRLSCEVSGSNFSINDMGWYRQAPGKRREVVAGISSVGRTMYGDPVKGRFTISRDNAKNMVYLQMNRLKPEDTAVYYCHLYGDYRGTGFWGKGTQVTVSS | –
5.37 nM | 抗bFGF纳米抗体 Nb3 (VHH, Alpaca nanobody; Nickel-purified, anti-Flag detected; also called Nb bFGF) VHH: LQESGGDLVQPGGSLRLSCEVSGSNFSINDMGWYRQAPGKRREVVAGISSVGRTMYADPVKGRFTISRDNAKNMVYLQMNRLKPEDTAVYYCHLYGDYRGTGFWGKGTQVTVSS | –
318 nM | 抗bFGF纳米抗体 Nb2 (VHH, Alpaca nanobody; Nickel-purified, anti-Flag detected; also called Nb bFGF) VHH: LQESGGDLVQPGGSLRLSCEVSGSNFSINDMGWYRQAPGKRREVVAGISSVGRAMYADPVKGRFTISRDNAKNMVYLQMNRLKPEDTAVYYCYLYGDYRGTGFWGKGTQVTVSS | –
11.3 nM | 抗bFGF纳米抗体 Nb1 (VHH, Expressed from pET22b in E. coli, purified on a nickel column and detected with an anti-Flag antibody; also called Nb bFGF) VHH: LQESGGDLVQPGGSLRLSCEVSGSNFSNNDMGWYRQAPGKQREVVAGISSVGRTMYGDPVKGRFTISRDNAKNMVYLQMNRLKAKDTAVYYCHLYGDYRGTGFWGKGTQVTVSS | –
